Broadly, the Ki is the dissociation constant of the complex between target and ligand, obtained from inhibition or displacement.

Among the data in publication PMC13170487 (Journal of molecular biology, 2025) are Ki values, retold here.

In assay [1] the target is T1, Tax-interacting protein 1 (TIP-1), His10 tag cleaved (UniProt O14907 1-124).
T1 sequence (looked up): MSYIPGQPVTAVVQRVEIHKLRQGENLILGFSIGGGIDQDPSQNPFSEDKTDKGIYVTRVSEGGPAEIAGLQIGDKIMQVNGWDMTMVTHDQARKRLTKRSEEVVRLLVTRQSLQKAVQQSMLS
Kind of assay: fluorescence polarisation.

Assay [2] has as its target CFTR-associated ligand (CAL) PDZ domain (UniProt Q9HD26-2 276-362). Kind of assay: fluorescence polarisation. (Polarisation of emitted light reports the rotation of a fluorescent probe.)

B1: L-iCAL36 (peptide)
peptide: ANSRLPTSII
For the molecule B1, in assay [1], the Ki is greater than 1000 µM.

B2: Y-iCAL36 (peptide)
peptide: ANSRYPTSII
B2 returned a Ki in assay [1] of 390 µM.

B3: BT-iCAL36 (peptide)
peptide: WRFKKANSRWPTSII
Turning to B3, the Ki was 2.4 µM in assay [1] and 3.1 µM in assay [2].
